Target: T1, HIV-1 capsid protein p24 (His-p24) (HIV-1 group M subtype B, NY5/NL4-3 …, UniProt P12493)
T1 construct: capsid protein p24 of HIV-1, the cut product of the Gag polyprotein; amplified from the template pWISP98-85 (NIH ARP); also called HIV-1 p24; p24 antigen; source: E. coli BL21-Star(DE3)pLysS, pET3a-His-p24, purified in-house; not shown: His6-Cys, N-terminal, kept
Assay: BLI; in the same nanobody storage buffer (Fig. S5)
Details: both partners purified

B1: nanobody 48G11 (59H10 F93D) (VHH)
VHH: DVQLQESGGGLVQAGGSLRLSCAASGSISRFNAMGWWRQAPGKEREFVARIVKGFDPVLADSVKGRFTISIDSAENTLALQMNRLKPEDTAVYYCDAALDTAYWGQGTQVTVSS
notes: as the chain of m2 (59H10, PDB 5O2U chain B) with F93D; made by site-directed mutagenesis; Artificial variant of 59H10 with one changed residue; also called 48G11 (F93D)
binding result: no binding

Source: publication PMC9892613, “Thermodynamic analysis of an entropically driven, high-affinity nanobody-HIV p24 interaction” (Biophysical Journal, 2022)
